The values that follow come from publication doi:10.1101/2025.11.04.686606.

The target of the experiment is PcoAA14A_dCTR, disordered C-terminal region alone of PcoAA14A (Pycnoporus coccineus). As to the kind of experiment: SEC-MALLS.

On to “PcoAA14A_dCTR, disordered C-terminal region alone of PcoAA14A (domain or fragment)”, for which the stoichiometry N worked out at 2.
